Earlier results in patent publication US20040101532A1, “Methods and compositions for heat shock protein mediated immunotherapy of melanoma” (priority 2004, published 2004).

How the values were obtained:
[1] = test system: CD8+ cytotoxic T lymphocytes; settings: HLA-A*0201-restricted TRP-2 peptides
[2] = vaccinated patients
tyrosinase = settings: vaccinated patients, after immunization with the tyrosinase peptide antigen
gp100 = settings: detected without extensive preliminary in vitro sensitization

In the case of “VMGTLVALV [TRP-2(476-484), HLA-A*0201-restricted TRP-2 peptide]”, the “induction of specific CD8+ cytotoxic T lymphocytes” value [1] is listed as “induced specific CD8+ cytotoxic T lymphocytes”.

In the case of YMDGTMSQV [tyrosinase:368-376 (370D)], the “tolerability in clinical trial” value [2] is given as “well tolerated with little toxicity” and the “increase in T cell responsiveness against tyrosinase by ELISPOT” value (tyrosinase) is given as “Two of nine vaccinated patients showed an increase in T cell responsiveness”.

In the case of “TLDSQVMSL [TRP-2(360-368), HLA-A*0201-restricted TRP-2 peptide]”, the “induction of specific CD8+ cytotoxic T lymphocytes” value [1] is listed as “induced specific CD8+ cytotoxic T lymphocytes”.

In the case of “IMDQVPFSV [gp100:209-217 peptide modified at second position, methionine for threonine]”, the “anti-gp100 T cell reactivity induced by immunization” value (gp100) is given as “induce anti-gp 100 T cell reactivity”.
